Assay [1] addresses huCDH19(44-772) with Flag tag (construct A, Hu EC1-5) (human, UniProt Q9H159 44-772). The assay is described as follows: flow cytometry, transfected 293T cells.
From the text: (§1) The experiment included assaying the anti-CDH19 antibodies against mouse Cadherin19 to determine suitability for binning on these human/mouse chimeras.
The target in assay [2] is T1, huCDH19(44-141)::muCDH19(140-770) with Flag tag (construct B, Hu EC1) (human/mouse chimera).
T1 construct: leader left out; the entry starts at residue 44; also called C137897
Nature of the assay: flow cytometry, transfected 293T cells. In general terms: A flow cytometer gives signals particle by particle.
From the text: as §1

The target in assay [3] is T2, huCDH19(44-249)::muCDH19(248-770) with Flag tag (construct C, Hu EC1-2) (human/mouse chimera).
T2 construct: leader left out; the entry starts at residue 44; also called C137896
The assay is described as follows: flow cytometry, transfected 293T cells.
From the text: as §1

For another assay, the target named is T3, Cyno Cadherin-19 (cynomologous monkey (Macaca …, UniProt Q9H159 44-772 (human entry))).
T3 construct: also called cynomologous monkey CDH-19
T3 chain: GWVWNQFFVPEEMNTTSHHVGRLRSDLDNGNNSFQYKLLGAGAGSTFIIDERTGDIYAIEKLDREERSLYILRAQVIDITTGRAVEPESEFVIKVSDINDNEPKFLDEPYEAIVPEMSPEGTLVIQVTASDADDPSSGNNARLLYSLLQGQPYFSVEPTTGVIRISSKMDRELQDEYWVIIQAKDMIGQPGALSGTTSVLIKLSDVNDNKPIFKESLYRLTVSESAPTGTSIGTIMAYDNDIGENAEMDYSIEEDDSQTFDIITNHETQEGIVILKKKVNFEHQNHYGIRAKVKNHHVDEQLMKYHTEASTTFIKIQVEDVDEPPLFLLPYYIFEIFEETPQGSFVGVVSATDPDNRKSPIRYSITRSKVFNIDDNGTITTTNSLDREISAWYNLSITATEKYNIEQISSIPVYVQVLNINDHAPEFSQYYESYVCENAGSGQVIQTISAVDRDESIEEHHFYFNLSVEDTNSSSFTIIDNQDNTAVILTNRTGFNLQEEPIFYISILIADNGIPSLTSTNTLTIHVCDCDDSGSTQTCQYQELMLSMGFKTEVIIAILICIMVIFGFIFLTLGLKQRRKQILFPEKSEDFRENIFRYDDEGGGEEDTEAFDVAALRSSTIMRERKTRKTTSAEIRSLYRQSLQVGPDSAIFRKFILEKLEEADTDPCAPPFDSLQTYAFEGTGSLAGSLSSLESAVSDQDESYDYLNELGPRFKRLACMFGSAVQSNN
Nature of the assay: FACS, recombinant cynomologous CDH-19.

The next assay concerns the target T4, Human Cadherin-19 (human, UniProt Q9H159 44-772).
T4 construct: also called CDH19; huCDH19
The assay is described as follows: FACS, endogenous CDH-19 on CHL-1 and Colo699 tumor cells.

Method for Human Cadherin-19: FACS binding assays were performed to evaluate the binding of the anti-Cadherin-19 receptor specific antibodies to endogenous Cadherin-19 receptor expressed on the CHL-1 tumor cell lines.
FACs assays were performed by incubating hybridoma supernatants with 10,000 to 25,000 cells in PBS/2% Fetal bovine serum/2 mM Calcium Chloride at 4° C. for one hour followed by two washes with PBS/2% Fetal bovine serum/2 mM Calcium Chloride. Cells were then treated with florochrome-labeled secondary antibodies at 4° C. followed by one wash. The cells were resuspended in 50 μl of PBS/2% FBS and antibody binding was analyzed using a FACSCalibur™ instrument.

B1: hu anti-<huCDH19> 4B10 (1-471)(R17G,D61E,D72E) VH::huIgG1z + 4B10 (1-236)(H45Q,A90T) VL::huKLC (Ab ID 14055) (antibody, V domains shown)
VH: QVQLVESGGGVVQPGGSLRLSCAASGFTFSSYDMHWVRQAPGKGLEWVAVISYEGTNEYYAESVKGRFTISRDTSKNTLYLQMNSLRAEDTAVYYCARERYFDWSFDYWGQGTLVSVSS
VL: EIVLTQSPGTLSLSPGERATLSCRASQSVSNTYLAWYQQRPGQAPRLLIYGASSRATGIPDRFSGSGSGTDFTLTISSLEPEDFAVYYCQQYSNSWTFGQGTKVEIKR
notes: Engineered variant of 4B10; the entries already carry the changes; Bin 4
Regarding B1, the binding result in assay [1] is “binds”.

B2: hu anti-<huCDH19> 4A9 VH::huIgG1z + 4A9 (1-239)(F47L) VL::huLLC-C1 (Ab ID 14056) (antibody, V domains shown)
VH: QVQLQESGPGLVKPSETLSLTCTVSGGSISGYYWSWIRQPPGKGLEWFAYFSYSGSTNYNPSLKSRVTLSVDTSKNQFSLKLSSVTAADTAVYYCARNWAFHFDFWGQGTLVTVSS
VL: QSVLTQPPSVSGAPGQRVTISCTGSSSNIGTGYAVHWYQQLPGTAPKLLIYGNNNRPSGVPDRFSGSKSGTSASLAITGLQAEDEADYYCQSYDSRLSGWVFGGGTKLTVLG
notes: Engineered variant of 4A9; the entries already carry the changes; Bin 1
Consider B2, for which the binding result in assay [1], in assay [2] and in assay [3] was “binds” each time.

B3: hu anti-<huCDH19> 4F7 (Ab ID 13591) (antibody, human IgG1, lambda, V domains shown)
VH: QVQLQESGPGLVKPSETLSLTCTVSGGSISSYSWSWIRQPPGKGLEWIGYIYYSGSTNYNPSLKSRVTISLDTSKNQFSLKLSSVTAADTAVYYCARNWAFHFDYWGQGTLVTVSS
VL: QSVLTQPPSVSGAPGQRVTISCTGSSSNIGTGYDVHWYQQLPGTAPKLLIHGNSNRPSGVPDRFSGSKSGTSASLAITGLQAEDEADYYCQSYDSSLSGWVFGGGTRLTVLG
notes: huIgG1z / huLLC-C1; Bin 1
As for B3, the binding result with Cyno Cadherin-19 and in the assay with Human Cadherin-19 was “binds” throughout.

B4: hu anti-<huCDH19> 4A9 (1-468)(F55I,A56G) VH::huIgG1z + 4A9 (1-239)(F47L) VL::huLLC-C1 (Ab ID 14057) (antibody, V domains shown)
VH: QVQLQESGPGLVKPSETLSLTCTVSGGSISGYYWSWIRQPPGKGLEWIGYFSYSGSTNYNPSLKSRVTLSVDTSKNQFSLKLSSVTAADTAVYYCARNWAFHFDFWGQGTLVTVSS
VL: QSVLTQPPSVSGAPGQRVTISCTGSSSNIGTGYAVHWYQQLPGTAPKLLIYGNNNRPSGVPDRFSGSKSGTSASLAITGLQAEDEADYYCQSYDSRLSGWVFGGGTKLTVLG
notes: as for B2
For the molecule B4, the binding result in assay [1], in assay [2] and in assay [3] was “binds” throughout.

B5: hu anti-<huCDH19> 20D3.1 (Ab ID 13878) (antibody, human IgG1, lambda, V domains shown)
VH: QVQLVQSGAEVKKPGASVKVSCKVSGYTFTSYFIHWVRQAPGQGLEWMGIINPISVSTSYAQKFQGRVTMTRDTSTSTVFMELSSLRSEDTAVYYCARGGIQLWLHFDYWGQGTLVTVSS
VL: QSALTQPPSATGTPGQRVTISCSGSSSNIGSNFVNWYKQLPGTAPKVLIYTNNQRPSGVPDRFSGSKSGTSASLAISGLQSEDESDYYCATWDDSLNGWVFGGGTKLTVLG
notes: huIgG1z / huLLC-C2; Bin 2; also called 16H2; 23E7
With B5, the binding result with Cyno Cadherin-19 and with Human Cadherin-19 was “binds” throughout.

B6: hu anti-<huCDH19> 19B5.1 (Ab ID 13885) (antibody, human IgG1, lambda, V domains shown)
VH: QVQLVQSGAEVKKPGASVKVSCKVSGYTFTSYFIHWVRQAPGQGLEWMGIINPISVSTSYAQKFQGRVTMTRDTSTSTVFMELSSLRSEDTAVYYCARGGIQLWLHLDYWGQGTLVTVSS
VL: QSALTQPPSTTGTPGQRVTISCSGSRSNIGSNFVNWYKQLPGTAPKVLIYTNNQRPSGVPDRFSGSKSGTSASLAISGLQSEDESDYYCATWDDSMNGWVFGGGTKLTVLG
notes: huIgG1z / huLLC-C2; Bin 2
Turning to B6, the binding result in the assay with Cyno Cadherin-19 and with Human Cadherin-19 was “binds” each time.

B7: hu anti-<huCDH19> 22D1.1 (Ab ID 13879) (antibody, human IgG1, lambda, V domains shown)
VH: QVQLVQSGAEVKKPGASVRVSCKVSGYTFTSYFIHWVRQAPGQGLEWMGIINPISVSTSYAQKFQGRVTMTRDTSTSTVFMELSSLRSEDTAVYYCARGGIQLWLHLDYWGQGTLVTVSS
VL: QSALTQPPSATGTPGQRVTISCSGSSSNIGSNFVNWYKQLPGTAPKVLIYTNNQRPSGVPDRFSGSKSGTSASLAISGLQSEDESDYYCATWDDSMNGWVFGGGTKLTVLG
notes: huIgG1z / huLLC-C2; Bin 2
As for B7, the binding result in the assay with Cyno Cadherin-19 and in the assay with Human Cadherin-19 was “binds” throughout.

B8: hu anti-<huCDH19> 22G10.1 (Ab ID 13877) (antibody, human IgG1, kappa, V domains shown)
VH: EVQLLESGGGLVQPGGSLRLSCAASGFTFSSYAMNWVRQAPGKGLEWVSTISGGGANTYYADSVKGRFTISSDNSKSTLYLQMNSLRAADTAVYHCAKGGMGGYYYGMDVWGQGTTVTVSS
VL: EIVMTQSPVTLSLSLGERATLSCRASQSISSNLAWFQQKPGQAPRLLIYGAFTRATGIPARVSGSGSGTEFTLTISSLQSEDFAVYYCQQYNYWPLTFGGGTKVEIKR
notes: huIgG1z / huKLC; Bin 3
Regarding B8, the binding result with Cyno Cadherin-19 and with Human Cadherin-19 was “binds” each time.

B9: anti-CDH19 antibody 23A10 (Ab ID 13884) (antibody, human IgG1, lambda, V domains shown)
VH: QVQLVESGGGVVQPGRSLRLSCAASGFTFSRYGIHWVRQAPGKGLEWVAVIWYDGSNKYYADSVKGRFTISRDNSKNTLYLLMNSLRAEDSAVYYCARRAGIPGTTGYYYGMDVWGQGTTVTVSS
VL: SYELTQPPSVSVSPGQTASITCSGDRLGEKYVCWYQQKPGQSPILVIYQDNKWPSGIPERFSGSNSGNTATLTISGTQAMDEADYYCQAWDSSTVVFGGGTKLTVLG
notes: Bin 4
Turning to B9, the binding result in the assay with Cyno Cadherin-19 and in the assay with Human Cadherin-19 was “binds” throughout.

B10: hu anti-<huCDH19> 25G10.1 (Ab ID 13883) (antibody, human IgG1, kappa, V domains shown)
VH: QVQLQESGPGLVKPSETLSLTCTVSGGSISGYYWSWIRQPPGKGLEWIGYIYYIGSTNYNPSLKSRVTMSVDTSKNQFSLKLSSVTAADTAVYYCARDGSSGWYRWFDPWGQGTLVTVSS
VL: EIVLTQSPGTLSLSPGERATLSCRASQSVSSSYLAWYQQKPGQAPRLLIFGASSRATGIPDRFSGSGSGTDFTLTISRLEPEDFAVYHCQQYGNSPLTFGGGTKVEIKR
notes: huIgG1z / huKLC; Bin 3
With B10, the binding result with Human Cadherin-19 was “binds”.

B11: hu anti-<huCDH19> 16C1.1 (Ab ID 13875) (antibody, human IgG1, kappa, V domains shown)
VH: QVQLQESGPGLVKPSETLSLTCTVSGGSISGYYWSWIRQPPGKGLEWIGYIYYIGSTNYNPSLKSRVTMSIDTSKNQFSLTLSSLTAADTAVYFCARDGSSGWYRWFDPWGQGTLVTVSS
VL: EIVLTQSPGTLSLSPGERATLSCRASQSVSSSYLAWYQQKPGQAPRLLIFGASSRATGIPDRFSGSGSGTDFTLTISGLEPEDFAVYHCQQYGNSPLTFGGGTKVEIKR
notes: huIgG1z / huKLC; Bin 3
On to B11, for which the binding result in the assay with Human Cadherin-19 is recorded as “binds”.

B12: hu anti-<huCDH19> 26D1.1 (1-469)(R27G,G82R) VH::huIgG1z + 26D1.1 (1-235)(H1Q,S7P) VL::huLLC-C2 (Ab ID 14088) (antibody, V domains shown)
VH: QVQLVQSGAEVKKPGASVKVSCKASGYTFTSYYMSWVRQAPGQGLEWMGIIHPSGGDTTYAQKFQGRVTMTRDTSTSTVYMELSSLRSEDTAVYYCARGGIKLWLHFDYWGQGTLVTVSS
VL: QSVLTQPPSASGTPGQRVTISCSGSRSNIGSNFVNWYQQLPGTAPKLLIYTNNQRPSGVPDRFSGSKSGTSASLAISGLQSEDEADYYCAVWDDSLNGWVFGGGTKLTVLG
notes: Engineered variant of 26D1; the entries already carry the changes; Bin 2
B12: the binding result in assay [1], in assay [2] and in assay [3] was “binds” each time.

B13: hu anti-<huCDH19> 25F8.1 VH::huIgG1z + 25F8.1 (1-235)(K45Q,S102A) VL::huLLC-C2 (Ab ID 14094) (antibody, V domains shown)
VH: QVQLVQSGAEVKKPGASVKVSCKASGYTFTSYYIHWVRQAPGQGLEWMGIINPSGGSTRYAQKFQGRVTMTRDTSTSTVFMELSSLRSEDTAVYYCARGGIQLWLHFDYWGQGTLVTVSS
VL: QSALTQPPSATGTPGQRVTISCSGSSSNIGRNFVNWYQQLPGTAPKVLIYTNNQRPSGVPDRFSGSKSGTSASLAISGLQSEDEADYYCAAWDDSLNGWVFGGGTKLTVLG
notes: Engineered variant of 25F8; the entries already carry the changes; Bin 2
B13: the binding result in assay [1], in assay [2] and in assay [3] was “binds” in each case.

B14: hu anti-<huCDH19> 25F8.1 (Ab ID 13880) (antibody, human IgG1, lambda, V domains shown)
VH: QVQLVQSGAEVKKPGASVKVSCKASGYTFTSYYIHWVRQAPGQGLEWMGIINPSGGSTRYAQKFQGRVTMTRDTSTSTVFMELSSLRSEDTAVYYCARGGIQLWLHFDYWGQGTLVTVSS
VL: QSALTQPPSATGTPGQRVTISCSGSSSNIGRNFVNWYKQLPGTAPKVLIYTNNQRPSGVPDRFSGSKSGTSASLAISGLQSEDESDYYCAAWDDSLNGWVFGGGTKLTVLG
notes: huIgG1z / huLLC-C2; Bin 2
B14: the binding result (with Cyno Cadherin-19; in assay [1]; in assay [2]; in assay [3]; with Human Cadherin-19) was “binds” in each case.

These data come from US20220127354A1 (Amgen, published 2022).
